Molecular target: IL-2 receptor (IL-2R) on CTLL-2 cells
Assay: cell-based or functional assay

mean effective dose (ED50), CTLL-2 proliferation (MTT assay): 0.34 ng/mL
Substance: Proleukin (recombinant human IL-2, Novartis Pharma GmbH; the Aldesleukin drug employed in the clinic) (from UniProt P60568 22-153) (ligand)

From patent publication US20220213163A1
